Data published in article PMC2850170 (The Biochemical journal, 2009).

Biological target: the molecule itself
Assay: SEC

B1: murine hexosaminidase D, short form (enzyme, mouse, UniProt Q3U4H6 1-486, looked up)
chain: MSSPTPFKMRLVHLDLKGAPPKVSYLSEVFPLFHALGANGLLIEYEDMFPYEGHLRLLRAKHAYSPSEVTEILRLARLSELEVIPLVQTFGHMEFVLKHAAFAHLREVALFPNTLNPHEAESLALVQAMIDQILELHRDVRWLHIGCDEVYYLGEGETSKQWLQQEQNSHAKLCLSHMQAVASHVLTQHPGVTPLVWDDMLRDIPQEQLKASGVPQLVEPVLWDYGADLDVHGKVFLIGKYQECGFQRLWAASAFKGATGASQALPPVEHHIRNHELWLQVAGSGPKDALQGIILTGWQRYDHFSVLCELLPVGIPSLAACLQSLVHGGFAEDVRLRAERFLGVSSLEIADTVSEGAGSFPGSDIHALVTQISLHLRSSVDTLLERNRYVTGWFSPYHRRRKLVHPVMIQHIQPEALSLLSRWNNLVQQLEVALQPVFYPDTIEEWLEENVLPSLQRLQDLLQDLGEAAARQPPPTSPGWDTGQNP
In the case of B1, the “stoichiometry N” value is reported as 2.
